Measurements taken from article PMC11092324.

Target: CV-1A1 Fv-clasp (UniProt Q13043)
Test: ELISA; sandwich ELISA: CV-1A1 Fv-clasp or scFv (0.7 µM in 50 mM carbonate buffer pH 9.6) coated on high-binding microplates, VLPs added in twofold serial dilutions, 37°C 2 h, detected with rabbit anti-VLP antisera; data fit to the Michaelis-Menten equation, Km taken as Kd (affinity or avidity); concentration counted as VP1

GI.4 Chiba virus-like particles (VP1 major capsid protein of the norovirus GI.4 Chiba strain) (complex)
Kd: 3.77 nM
